# According to patent US20200405610A1, “COSMETIC COMPOSITION” (Shaanxi Huikang Bio-Tech Co., Ltd., priority 2016, published 2020):
# Experiment: Isoelectric point of the pentapeptide
# Assay type: physicochemical
substance,measurement,value
Tyr-Gly-Phe-Gly-Gly (YGFGG; OGP(10-14); listed as Homo sapiens),isoelectric point,5.52
